Results: publication PMC7272653, “Human aminolevulinate synthase structure reveals a eukaryotic-specific autoinhibitory loop regulating substrate binding and product release” (Nature Communications, 2020)

B1: hsALAS2_(ΔN142) (human erythroid-specific 5′-aminolevulinate synthase, aa 143–587) (enzyme, UniProt P22557 143-587, looked up)
chain: FSYDQFFRDKIMEKKQDHTYRVFKTVNRWADAYPFAQHFSEASVASKDVSVWCSNDYLGMSRHPQVLQATQETLQRHGAGAGGTRNISGTSKFHVELEQELAELHQKDSALLFSSCFVANDSTLFTLAKILPGCEIYSDAGNHASMIQGIRNSGAAKFVFRHNDPDHLKKLLEKSNPKIPKIVAFETVHSMDGAICPLEELCDVSHQYGALTFVDEVHAVGLYGSRGAGIGERDGIMHKIDIISGTLGKAFGCVGGYIASTRDLVDMVRSYAAGFIFTTSLPPMVLSGALESVRLLKGEEGQALRRAHQRNVKHMRQLLMDRGLPVIPCPSHIIPIRVGNAALNSKLCDLLLSKHGIYVQAINYPTVPRGEELLRLAPSPHHSPQMMEDFVEKLLLAWTAVGLPLQDVSVAACNFCRRPVHFELMSEWERSYFGNMGPQYVTTYA
notes: human ALAS2 (5′-aminolevulinate synthase, erythroid-specific), aa 143–587: catalytic core and Ct-extension; Before crystallisation it was made non-covalent with hydroxylamine; The His6 tag is TEV-cleavable and was removed 'where applicable'; also called hsALAS2_(ΔN142) WT; source: baculovirus-infected Sf9 insect cells, purified (Ni-NTA, Superdex 200)
B2: hsALAS2_(ΔN142ΔC545) (catalytic domain alone, aa 143–545) (domain or fragment, human, UniProt P22557 143-545, looked up)
chain: FSYDQFFRDKIMEKKQDHTYRVFKTVNRWADAYPFAQHFSEASVASKDVSVWCSNDYLGMSRHPQVLQATQETLQRHGAGAGGTRNISGTSKFHVELEQELAELHQKDSALLFSSCFVANDSTLFTLAKILPGCEIYSDAGNHASMIQGIRNSGAAKFVFRHNDPDHLKKLLEKSNPKIPKIVAFETVHSMDGAICPLEELCDVSHQYGALTFVDEVHAVGLYGSRGAGIGERDGIMHKIDIISGTLGKAFGCVGGYIASTRDLVDMVRSYAAGFIFTTSLPPMVLSGALESVRLLKGEEGQALRRAHQRNVKHMRQLLMDRGLPVIPCPSHIIPIRVGNAALNSKLCDLLLSKHGIYVQAINYPTVPRGEELLRLAPSPHHSPQMMEDFVEKLLLAWTAVGL
notes: human ALAS2, catalytic domain alone, aa 143–545 (Ct-extension omitted); also called hsALAS2_(ΔN142ΔC545) WT; source: constructs cloned into pFB-LIC-Bse (Sf9) and pNIC28-Bsa4; purified (Ni-NTA, Superdex 200)

Biological target: the molecule itself
Test: SEC + other: SAXS; in solution; SAXS coupled to a Shodex KW403-4F size exclusion column; 300 mM NaCl, 25 mM Hepes 7.5, 1 mM TCEP, 2% glycerol, 1% sucrose, 20 °C

Protein | stoichiometry N
B1 | 2
B2 | 2
